Laboratory results taken from the supplement of paper PMC10724198.
± gives the standard deviation of the averaged measurements.

How the values were obtained:
Saccharomyces cerevisiae [1] = assay: protein stability index of tFT-peptide fusion (C-terminal peptide) (PSI (0-1 scale)); higher = more stable (slower turnover)
Procedure: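 MPS profiling in S. cerevisiae of the tFT-X12 degron library: putative degron peptides plus stable controls, 12 aa, fused to the C-terminus of a sfGFP-mCherry timer. Cells are FACS-sorted into 8 mCherry/sfGFP bins and deep-sequenced. PSI runs from 0 (unstable) to 1 (stable). Backgrounds are wild type, das1Δ and doa10Δ at 30 °C, and wild type, das1Δ, cdc34-1 and cdc53-1 at 37 °C; 2-3 technical replicates each.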

Saccharomyces cerevisiae [2] = assay: as above; conditions: genetic background: wild type; temperature: 30 C
[3] = genetic background: cdc34-1, temperature: 37 C
[4] = genetic background: cdc53-1, temperature: 37 C
[5] = genetic background: das1 deletion, temperature: 30 C
[6] = genetic background: das1 deletion, temperature: 37 C
[7] = genetic background: doa10 deletion, temperature: 30 C
[8] = genetic background: wild type, temperature: 30 C
[9] = genetic background: wild type, temperature: 37 C
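Further: PSI is a weighted mean of sequencing reads over stability bins, variants kept only with over 10 reads, mCherry proximal and sfGFP distal, peptide attached via GGGS linker.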

| Sequence | protein stability index (Saccharomyces cerevisiae [1]; [3]) | protein stability index (Saccharomyces cerevisiae [1]; [4]) | protein stability index (Saccharomyces cerevisiae [1]; [5]) | protein stability index (Saccharomyces cerevisiae [1]; [6]) | protein stability index (Saccharomyces cerevisiae [1]; [7]) | protein stability index (Saccharomyces cerevisiae [1]; [8]) | protein stability index (Saccharomyces cerevisiae [1]; [9]) | protein stability index (Saccharomyces cerevisiae [2]) |
| --- | --- | --- | --- | --- | --- | --- | --- | --- |
| NFFLLFFFFLSF | 0.455 ± 0.037 | 0.4876 ± 0.0038 | 0.398 ± 0.045 | 0.535 ± 0.0082 | 0.4656 ± 0.0034 | 0.41 ± 0.043 | 0.512 ± 0.022 | 0.415 ± 0.049 |
| PAMPTEPKSSSG | 0.667 ± 0.019 | 0.7403 ± 0.0028 | 0.629 ± 0.015 | 0.716 ± 0.034 | 0.644 ± 0.015 | 0.667 ± 0.033 | 0.717 ± 0.0095 | 0.7016 ± 0.0016 |
| PFFSSLKYRRDH | 0.598 ± 0.07 | 0.751 ± 0.014 | 0.6675 ± 0.0032 | 0.77 ± 0.02 | 0.117 ± 0.024 | 0.142 ± 0.023 | 0.197 ± 0.014 | 0.237 ± 0.051 |
| PFFVFSFLFLLH | 0.114 ± 0.01 | 0.183 ± 0.023 | 0.192 ± 0.024 | 0.313 ± 0.035 | 0.194 ± 0.012 | 0.15 ± 0.029 | 0.275 ± 0.015 | 0.288 ± 0.054 |
| PHRLSRFILRLL | 0.562 ± 0.027 | 0.683 ± 0.014 | 0.65 ± 0.033 | 0.703 ± 0.013 | 0.118 ± 0.0059 | 0.119 ± 0.019 | 0.219 ± 0.015 | 0.194 ± 0.041 |
| PLCLFPPLLVFL | 0.492 ± 0.044 | 0.526 ± 0.034 | 0.411 ± 0.024 | 0.556 ± 0.021 | 0.453 ± 0.022 | 0.387 ± 0.02 | 0.5103 ± 0.0047 | 0.462 ± 0.032 |
| PLFLLTFAITLV | 0.0736 ± 0.0086 | 0.194 ± 0.06 | 0.166 ± 0.024 | 0.277 ± 0.018 | 0.152 ± 0.0066 | 0.146 ± 0.028 | 0.2289 ± 0.00087 | 0.272 ± 0.021 |
| PLLLLLPSLLLV | 0.363 ± 0.027 | 0.413 ± 0.011 | 0.3 ± 0.029 | 0.439 ± 0.021 | 0.149 ± 0.0015 | 0.18 ± 0.017 | 0.248 ± 0.013 | 0.25 ± 0.025 |
| PLRRPSWVVLSS | 0.671 ± 0.024 | 0.7218 ± 0.0037 | 0.638 ± 0.014 | 0.727 ± 0.0099 | 0.357 ± 0.024 | 0.38 ± 0.029 | 0.5802 ± 0.0041 | 0.493 ± 0.0029 |
| PPIPTPSPIPLH | 0.66 ± 0.018 | 0.726 ± 0.0011 | 0.653 ± 0.017 | 0.695 ± 0.021 | 0.667 ± 0.011 | 0.658 ± 0.017 | 0.677 ± 0.015 | 0.7119 ± 0.0055 |
| PPPHPPPATFLS | 0.661 ± 0.029 | 0.692 ± 0.0097 | 0.676 ± 0.02 | 0.729 ± 0.022 | 0.401 ± 0.023 | 0.407 ± 0.021 | 0.596 ± 0.026 | 0.479 ± 0.011 |
| PPPPPPPSSSSL | 0.667 ± 0.041 | 0.735 ± 0.027 | 0.672 ± 0.017 | 0.722 ± 0.011 | 0.674 ± 0.013 | 0.696 ± 0.037 | 0.727 ± 0.03 | 0.388 ± 0.0099 |
| PPTHDSPVWSPS | 0.677 ± 0.06 | 0.721 ± 0.023 | 0.672 ± 0.029 | 0.7438 ± 0.0025 | 0.667 ± 0.017 | 0.687 ± 0.02 | 0.7217 ± 0.0029 | 0.743 ± 0.0086 |
| PPVAYVCHLYVT | 0.589 ± 0.058 | 0.614 ± 0.029 | 0.5 ± 0.017 | 0.6058 ± 0.0045 | 0.309 ± 0.031 | 0.335 ± 0.028 | 0.503 ± 0.013 | 0.428 ± 0.0053 |
| PPVLAPHLCFPP | 0.685 ± 0.008 | 0.736 ± 0.0089 | 0.657 ± 0.0043 | 0.739 ± 0.015 | 0.673 ± 0.028 | 0.675 ± 0.019 | 0.713 ± 0.019 | 0.724 ± 0.018 |
| PRTTHTPLLIAS | 0.566 ± 0.046 | 0.6584 ± 0.003 | 0.54 ± 0.012 | 0.662 ± 0.03 | 0.177 ± 0.012 | 0.205 ± 0.025 | 0.296 ± 0.046 | 0.296 ± 0.021 |
| PSFLAIRVCLLV | 0.0466 ± 0.00074 | 0.0881 ± 0.02 | 0.147 ± 0.034 | 0.211 ± 0.0098 | 0.0853 ± 0.02 | 0.0766 ± 0.01 | 0.0987 ± 0.036 | 0.133 ± 0.021 |
| PSPRLSLPPRLP | 0.631 ± 0.01 | 0.729 ± 0.029 | 0.677 ± 0.016 | 0.731 ± 0.017 | 0.71 ± 0.037 | 0.686 ± 0.024 | 0.6948 ± 0.002 | 0.737 ± 0.022 |
| PSPRRPPRSRFP | 0.651 ± 0.023 | 0.725 ± 0.028 | 0.653 ± 0.0072 | 0.7355 ± 0.0031 | 0.672 ± 0.03 | 0.654 ± 0.037 | 0.701 ± 0.017 | 0.732 ± 0.0084 |
